The values that follow are results of earlier work, collected in PMC9315744.

Usually pKd stands for the negative decadic logarithm of the Kd, by convention in mol/L.

What all share (assay): MST
One data set concerns the target Nsp8 (SARS-CoV-2) (UniProt P0DTD1).
The target of data set [1] is Nsp7/Nsp8 complex (SARS-CoV-2) (UniProt P0DTD1).
Data set [2] concerns the target MHV spike glycoprotein ECD (Murine hepatitis virus) (UniProt P11224).

pKd: −log10 of the molar value.

Sequence of MHV spike glycoprotein ECD (Murine hepatitis virus) (P11224 15-1231): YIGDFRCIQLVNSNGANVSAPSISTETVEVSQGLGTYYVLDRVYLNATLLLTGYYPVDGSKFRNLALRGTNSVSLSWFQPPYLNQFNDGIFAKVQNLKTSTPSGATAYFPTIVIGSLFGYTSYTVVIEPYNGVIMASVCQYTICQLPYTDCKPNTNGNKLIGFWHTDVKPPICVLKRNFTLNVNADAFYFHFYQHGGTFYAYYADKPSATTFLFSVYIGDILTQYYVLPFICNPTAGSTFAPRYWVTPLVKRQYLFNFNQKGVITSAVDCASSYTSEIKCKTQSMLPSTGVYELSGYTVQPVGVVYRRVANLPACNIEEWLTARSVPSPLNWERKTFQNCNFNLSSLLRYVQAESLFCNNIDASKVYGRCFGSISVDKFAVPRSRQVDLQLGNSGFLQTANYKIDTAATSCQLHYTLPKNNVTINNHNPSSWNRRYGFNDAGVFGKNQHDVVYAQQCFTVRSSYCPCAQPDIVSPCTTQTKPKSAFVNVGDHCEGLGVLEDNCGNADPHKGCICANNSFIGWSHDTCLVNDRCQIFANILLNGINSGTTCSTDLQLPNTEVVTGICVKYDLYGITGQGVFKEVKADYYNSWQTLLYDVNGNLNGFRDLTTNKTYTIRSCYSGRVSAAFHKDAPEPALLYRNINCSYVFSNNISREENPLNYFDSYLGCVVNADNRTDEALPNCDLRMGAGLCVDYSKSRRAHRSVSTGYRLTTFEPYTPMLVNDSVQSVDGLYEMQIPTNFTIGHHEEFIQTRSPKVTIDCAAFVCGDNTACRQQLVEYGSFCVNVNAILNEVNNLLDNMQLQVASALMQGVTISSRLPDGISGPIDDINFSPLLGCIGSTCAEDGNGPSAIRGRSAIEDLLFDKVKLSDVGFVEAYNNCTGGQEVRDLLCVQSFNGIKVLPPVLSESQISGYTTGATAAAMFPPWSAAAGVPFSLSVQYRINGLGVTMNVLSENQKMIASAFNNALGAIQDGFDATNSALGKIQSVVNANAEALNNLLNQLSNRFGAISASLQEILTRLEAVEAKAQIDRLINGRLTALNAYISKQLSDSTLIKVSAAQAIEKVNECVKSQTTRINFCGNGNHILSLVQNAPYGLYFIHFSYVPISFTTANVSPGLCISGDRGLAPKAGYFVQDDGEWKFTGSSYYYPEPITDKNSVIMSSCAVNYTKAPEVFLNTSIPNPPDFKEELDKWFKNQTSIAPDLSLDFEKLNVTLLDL
Sequence of CEACAM1a (P31809 35-428): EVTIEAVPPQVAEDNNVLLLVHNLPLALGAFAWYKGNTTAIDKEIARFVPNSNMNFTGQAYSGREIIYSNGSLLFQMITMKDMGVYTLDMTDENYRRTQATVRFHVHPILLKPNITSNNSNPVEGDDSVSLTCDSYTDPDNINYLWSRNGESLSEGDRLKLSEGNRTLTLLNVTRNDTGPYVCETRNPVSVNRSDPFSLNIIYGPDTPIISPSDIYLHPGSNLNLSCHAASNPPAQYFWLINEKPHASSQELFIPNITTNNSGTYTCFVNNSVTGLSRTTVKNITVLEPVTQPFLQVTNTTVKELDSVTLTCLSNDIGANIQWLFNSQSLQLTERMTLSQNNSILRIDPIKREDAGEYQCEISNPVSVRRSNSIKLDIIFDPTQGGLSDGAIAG

On to Nsp15 (from UniProt P0DTD1), for which the pKd with Nsp8 (SARS-CoV-2) was 4.79; in data set [1], 5.19.
As to CEACAM1a (from UniProt P31809), the negative logarithm of the Kd (pKd) in data set [2] was 7.31.
